What all share (assay): flow cytometry on cells; T cells stably expressing the IL13-based CARs titrated with recombinant biotinylated receptor (IL13Rα1-Fc, IL13Rα2-Fc or mouse IL13Rα1); dose-response curves, three independent trials
In test [1] the target is IL13 D7 CAR (IL13 D7 - IgG4(EQ)-Fc linker - CD28 transmembrane and costimulatory domain - CD3ζ) on T cells.
Test [2] deals with IL13 E12Y CAR (IL13 E12Y - IgG4(EQ)-Fc linker - CD28 transmembrane and costimulatory domain - CD3ζ) on T cells.
Test [3] addresses IL13 WT CAR (IL13 - IgG4(EQ)-Fc linker - CD28 transmembrane and costimulatory domain - CD3ζ) on T cells.
Test [4] concerns the target IL13 C4 CAR (IL13 C4 - IgG4(EQ)-Fc linker - CD28 transmembrane and costimulatory domain - CD3ζ) on T cells.

B1: Recombinant human IL13Rα2-Fc chimera (Fc fusion)
chain: DTEIKVNPPQDFEIVDPGYLGYLYLQWQPPLSLDHFKECTVEYELKYRNIGSETWKTIITKNLHYKDGFDLNKGIEAKIHTLLPWQCTNGSEVQSSWAETTYWISPQGIPETKVQDMDCVYYNWQYLLCSWKPGIGVLLDTNYNLFYWYEGLDHALQCVDYIKADGQNIGCRFPYLEASDYKDFYICVNGSSENKPIRSSYFTFQLQNIVKPLPPVYLTFTRESSCEIKLKWSIPLGPIPARCFDYEIEIREDDTTLVTATVENETYTLKTTNETRQLCFVVRSKVNIYCSDDGIWSEWSDKQCWEGEDLSKKTLLR
modifications: biotin (in the titration of CAR T cells)
Turning to B1, the Kd came out at 4.2 nM in test [1], 1.8 nM in test [2], 1.7 nM in test [3] and 29 nM in test [4].

B2: Recombinant human IL13Rα1-Fc chimera (Fc fusion)
chain: GGGGAAPTETQPPVTNLSVSVENLCTVIWTWNPPEGASSNCSLWYFSHFGDKQDKKIAPETRRSIEVPLNERICLQVGSQCSTNESEKPSILVEKCISPPEGDPESAVTELQCIWHNLSYMKCSWLPGRNTSPDTNYTLYYWHRSLEKIHQCENIFREGQYFGCSFDLTKVKDSSFEQHSVQIMVKDNAGKIKPSFNIVPLTSRVKPDPPHIKNLSFHNDDLYVQWENPQNFISRCLFYEVEVNNSQTETHNVFYVQEAKCENPEFERNVENTSCFMVPGVLPDTLNTVRIRVKTNKLCYEDDKLWSNWSQEMSIGKKRNST
modifications: biotin (in the titration of CAR T cells)
In the case of B2, the Kd in test [2] and in test [3] was 34 nM each time.

The values above are taken from publication PMC9388138.
